From article PMC5603589 (2017) come the findings set out here.

The target in this assay is GST-AKT1 CA (85 kDa) (UniProt P31749 1-480). Nature of the assay: BLI.
GST-AKT1 CA (85 kDa), sequence (P31749 whole entry): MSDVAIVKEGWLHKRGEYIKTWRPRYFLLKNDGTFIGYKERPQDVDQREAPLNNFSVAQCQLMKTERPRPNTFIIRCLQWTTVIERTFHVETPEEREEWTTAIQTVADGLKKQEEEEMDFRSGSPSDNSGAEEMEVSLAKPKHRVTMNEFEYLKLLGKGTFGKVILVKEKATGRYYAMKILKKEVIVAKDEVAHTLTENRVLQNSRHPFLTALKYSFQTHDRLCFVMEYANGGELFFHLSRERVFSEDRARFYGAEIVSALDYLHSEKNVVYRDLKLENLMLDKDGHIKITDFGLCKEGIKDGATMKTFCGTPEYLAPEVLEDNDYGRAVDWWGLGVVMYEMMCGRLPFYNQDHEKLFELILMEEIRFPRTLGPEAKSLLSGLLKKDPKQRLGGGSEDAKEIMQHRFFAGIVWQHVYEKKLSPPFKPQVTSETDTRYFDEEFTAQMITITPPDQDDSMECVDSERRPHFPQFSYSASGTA

B1: GST-PALLD third IgC domain (40 kDa) (domain or fragment)
chain: PFFEMKLKHYKIFEGMPVTFTCRVAGNPKPKIYWFKDGKQISPKSDHYTIQRDLDGTCSLHTTASTLDDDGNYTIMAANPQGRIS
modifications: labelled by biotin
By Kd is commonly meant the concentration at which binding is half-saturated. A low value points to a tighter complex. B1 had a Kd of 0.0772 nM.
